Experimental findings from IntAct's records for PubMed 29039417 are described below.

The chains are these.
B1: BBSome complex member BBS5 (Homo sapiens), Q8N3I7 (parent)
chain: MSVLDALWEDRDVRFDLSAQQMKTRPGEVLIDCLDSIEDTKGNNGDRGRLLVTNLRILWHSLALSRVNVSVGYNCILNITTRTANSKLRGQTEALYILTKCNSTRFEFIFTNLVPGSPRLFTSVMAVHRAYETSKMYRDFKLRSALIQNKQLRLLPQEHVYDKINGVWNLSSDQGNLGTFFITNVRIVWHANMNDSFNVSIPYLQIRSIKIRDSKFGLALVIESSQQSGGYVLGFKIDPVEKLQESVKEINSLHKVYSASPIFGVDYEMEEKPQPLEALTVEQIQDDVEIDSDGHTDAFVAYFADGNKQQDREPVFSEELGLAIEKLKDGFTLQGLWEVMS
partner: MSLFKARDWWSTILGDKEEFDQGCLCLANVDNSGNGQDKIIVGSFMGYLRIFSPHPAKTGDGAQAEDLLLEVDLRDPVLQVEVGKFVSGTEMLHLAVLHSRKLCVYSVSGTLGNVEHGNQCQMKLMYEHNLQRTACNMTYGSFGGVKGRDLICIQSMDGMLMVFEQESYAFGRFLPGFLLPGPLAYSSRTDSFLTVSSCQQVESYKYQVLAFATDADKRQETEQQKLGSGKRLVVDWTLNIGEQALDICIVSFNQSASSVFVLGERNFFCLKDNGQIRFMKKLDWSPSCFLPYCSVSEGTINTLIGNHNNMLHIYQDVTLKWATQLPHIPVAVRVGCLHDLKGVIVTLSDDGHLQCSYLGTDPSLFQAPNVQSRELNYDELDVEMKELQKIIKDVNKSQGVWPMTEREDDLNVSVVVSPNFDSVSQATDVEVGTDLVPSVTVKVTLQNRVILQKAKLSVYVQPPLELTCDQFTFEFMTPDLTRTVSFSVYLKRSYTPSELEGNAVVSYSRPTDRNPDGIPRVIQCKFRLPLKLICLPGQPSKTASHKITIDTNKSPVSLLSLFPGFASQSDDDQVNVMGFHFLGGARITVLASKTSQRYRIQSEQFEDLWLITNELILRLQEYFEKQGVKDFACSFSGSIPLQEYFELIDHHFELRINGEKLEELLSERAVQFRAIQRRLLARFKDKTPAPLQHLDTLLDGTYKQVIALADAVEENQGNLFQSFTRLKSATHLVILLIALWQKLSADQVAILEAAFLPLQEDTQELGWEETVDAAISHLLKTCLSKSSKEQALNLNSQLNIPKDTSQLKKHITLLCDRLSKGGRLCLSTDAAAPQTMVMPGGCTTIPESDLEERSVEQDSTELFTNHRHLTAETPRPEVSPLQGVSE
B2: BBSome complex member BBS2 (Homo sapiens), Q9BXC9 (parent)
chain: MLLPVFTLKLRHKISPRMVAIGRYDGTHPCLAAATQTGKVFIHNPHTRNQHVSASRVFQSPLESDVSLLSINQAVSCLTAGVLNPELGYDALLVGTQTNLLAYDVYNNSDLFYREVADGANAIVLGTLGDISSPLAIIGGNCALQGFNHEGSDLFWTVTGDNVNSLALCDFDGDGKKELLVGSEDFDIRVFKEDEIVAEMTETEIVTSLCPMYGSRFGYALSNGTVGVYDKTSRYWRIKSKNHAMSIHAFDLNSDGVNELITGWSNGKVDARSDRTGEVIFKDNFSSAIAGVVEGDYRMDGHIQLICCSVDGEIRGYLPGTAEMRGNLMDTSAEQDLIRELSQKKQNLLLELRNYEENAKAELASPLNEADGHRGIIPANTRLHTTLSVSLGNETQTAHTELRISTSNDTIIRAVLIFAEGIFTGESHVVHPSIHNLSSSICIPIVPPKDVPVDLHLKAFVGYRSSTQFHVFESTRQLPRFSMYALTSLDPASEPISYVNFTIAERAQRVVVWLGQNFLLPEDTHIQNAPFQVCFTSLRNGGHLHIKIKLSGEITINTDDIDLAGDIIQSMASFFAIEDLQVEADFPVYFEELRKVLVKVDEYHSVHQKLSADMADHSNLIRSLLVGAEDARLMRDMKTMKSRYMELYDLNRDLLNGYKIRCNNHTELLGNLKAVNQAIQRAGRLRVGKPKNQVITACRDAIRSNNINTLFKIMRVGTASS
partner: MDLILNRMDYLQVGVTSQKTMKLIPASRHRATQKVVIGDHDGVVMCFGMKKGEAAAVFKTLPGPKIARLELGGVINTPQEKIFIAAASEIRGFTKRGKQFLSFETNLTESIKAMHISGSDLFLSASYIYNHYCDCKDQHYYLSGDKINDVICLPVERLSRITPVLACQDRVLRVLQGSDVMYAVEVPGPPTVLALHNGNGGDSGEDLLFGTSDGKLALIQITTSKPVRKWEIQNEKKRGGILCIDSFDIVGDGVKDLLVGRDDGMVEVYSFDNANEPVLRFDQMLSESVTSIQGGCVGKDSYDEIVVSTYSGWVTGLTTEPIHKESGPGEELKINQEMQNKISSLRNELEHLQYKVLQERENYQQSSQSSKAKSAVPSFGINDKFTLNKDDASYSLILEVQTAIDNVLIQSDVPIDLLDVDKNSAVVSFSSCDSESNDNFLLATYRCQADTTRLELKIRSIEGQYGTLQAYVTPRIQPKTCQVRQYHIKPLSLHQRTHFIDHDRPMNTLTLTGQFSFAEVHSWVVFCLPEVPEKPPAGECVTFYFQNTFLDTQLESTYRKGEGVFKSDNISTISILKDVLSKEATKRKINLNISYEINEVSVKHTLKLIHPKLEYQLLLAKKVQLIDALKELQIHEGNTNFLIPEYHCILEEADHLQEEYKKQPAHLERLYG

One test covers variants of B1. To be noted: with pthb1_human BBS9, Q3SYG4.
For D16S, the “effect of a mutation on the interaction” value is on record as “disrupting interaction strength”.

With D16E, the “effect of a mutation on the interaction” value was “with no effect”.

As to D16A, the “effect of a mutation on the interaction” value was “with no effect”.

For D16K, the “effect of a mutation on the interaction” value is “with no effect”.

As for V3A, the “effect of a mutation on the interaction” value is given as “with no effect”.

Take V3E: the “effect of a mutation on the interaction” value is on record as “with no effect”.

In the case of V3K, the “effect of a mutation on the interaction” value is reported as “with no effect”.

For Q21A, the “effect of a mutation on the interaction” value is given as “with no effect”.

Consider S18A, for which the “effect of a mutation on the interaction” value was “with no effect”.

With S18E, the “effect of a mutation on the interaction” value is given as “with no effect”.

S18K: the “effect of a mutation on the interaction” value is listed as “with no effect”.

On to L7K, for which the “effect of a mutation on the interaction” value is listed as “with no effect”.

On to L7A, for which the “effect of a mutation on the interaction” value is “with no effect”.

As to L7E, the “effect of a mutation on the interaction” value is given as “with no effect”.

In the case of L4K, the “effect of a mutation on the interaction” value is on record as “with no effect”.

Turning to L4E, the “effect of a mutation on the interaction” value is “with no effect”.

For the variant L4A, the “effect of a mutation on the interaction” value is given as “with no effect”.

Regarding A6K, the “effect of a mutation on the interaction” value is “with no effect”.

Regarding A6E, the “effect of a mutation on the interaction” value is “with no effect”.

For the variant D10K, the “effect of a mutation on the interaction” value is “with no effect”.

Turning to D10A, the “effect of a mutation on the interaction” value was “with no effect”.

For D10E, the “effect of a mutation on the interaction” value is reported as “with no effect”.

V13K: the “effect of a mutation on the interaction” value is on record as “disrupting interaction strength”.

For the variant V13A, the “effect of a mutation on the interaction” value is on record as “disrupting interaction strength”.

Turning to V13E, the “effect of a mutation on the interaction” value was “disrupting interaction strength”.

As for D12A, the “effect of a mutation on the interaction” value was “with no effect”.

Turning to D12E, the “effect of a mutation on the interaction” value is on record as “with no effect”.

For D12K, the “effect of a mutation on the interaction” value is “disrupting interaction strength”.

With W8A, the “effect of a mutation on the interaction” value is “with no effect”.

As for W8K, the “effect of a mutation on the interaction” value is recorded as “with no effect”.

In the case of W8E, the “effect of a mutation on the interaction” value is on record as “with no effect”.

In the case of Q20E, the “effect of a mutation on the interaction” value is “with no effect”.

Consider Q20A, for which the “effect of a mutation on the interaction” value is on record as “disrupting interaction strength”.

Take Q20K: the “effect of a mutation on the interaction” value is reported as “with no effect”.

D5E: the “effect of a mutation on the interaction” value is reported as “with no effect”.

With D5K, the “effect of a mutation on the interaction” value was “with no effect”.

As for D5A, the “effect of a mutation on the interaction” value is reported as “with no effect”.

In the case of S2E, the “effect of a mutation on the interaction” value was “with no effect”.

Take S2K: the “effect of a mutation on the interaction” value is “with no effect”.

For S2A, the “effect of a mutation on the interaction” value is “with no effect”.

Turning to R14K, the “effect of a mutation on the interaction” value is “with no effect”.

As for R14A, the “effect of a mutation on the interaction” value is given as “with no effect”.

Consider R14E, for which the “effect of a mutation on the interaction” value was “disrupting interaction strength”.

Take E9K: the “effect of a mutation on the interaction” value is “with no effect”.

E9A: the “effect of a mutation on the interaction” value was “with no effect”.

F15A: the “effect of a mutation on the interaction” value is “disrupting interaction strength”.

With F15L, the “effect of a mutation on the interaction” value was “disrupting interaction strength”.

F15K: the “effect of a mutation on the interaction” value was “with no effect”.

On to F15E, for which the “effect of a mutation on the interaction” value is given as “disrupting interaction strength”.

In the case of A19E, the “effect of a mutation on the interaction” value is reported as “with no effect”.

Consider A19K, for which the “effect of a mutation on the interaction” value is given as “with no effect”.

On to R11A, for which the “effect of a mutation on the interaction” value is listed as “disrupting interaction strength”.

R11E: the “effect of a mutation on the interaction” value is “disrupting interaction strength”.

As for R11K, the “effect of a mutation on the interaction” value was “with no effect”.

For the variant R11W, the “effect of a mutation on the interaction” value is listed as “disrupting interaction strength”.

Regarding M1K, the “effect of a mutation on the interaction” value is on record as “with no effect”.

For the variant M1A, the “effect of a mutation on the interaction” value was “with no effect”.

Regarding M1E, the “effect of a mutation on the interaction” value is on record as “with no effect”.

Take L17R: the “effect of a mutation on the interaction” value was “disrupting interaction strength”.

With L17A, the “effect of a mutation on the interaction” value is given as “disrupting interaction strength”.

Regarding L17E, the “effect of a mutation on the interaction” value is listed as “disrupting interaction strength”.

Regarding L17K, the “effect of a mutation on the interaction” value was “disrupting interaction strength”.

The variants in the next test derive from B2. To be noted: with BBS7, Q8IWZ6-2.
In the case of M714E, the “effect of a mutation on the interaction” value is “with no effect”.

Consider M714K, for which the “effect of a mutation on the interaction” value is “with no effect”.

With G717A, the “effect of a mutation on the interaction” value is “with no effect”.

G717E: the “effect of a mutation on the interaction” value is “with no effect”.

On to G717K, for which the “effect of a mutation on the interaction” value is given as “with no effect”.

As for R715A, the “effect of a mutation on the interaction” value is reported as “with no effect”.

On to R715E, for which the “effect of a mutation on the interaction” value is recorded as “with no effect”.

For the variant R715K, the “effect of a mutation on the interaction” value is listed as “with no effect”.

Consider S720K, for which the “effect of a mutation on the interaction” value is on record as “with no effect”.

On to S720A, for which the “effect of a mutation on the interaction” value is recorded as “with no effect”.

As to S720E, the “effect of a mutation on the interaction” value is “with no effect”.

As for S721K, the “effect of a mutation on the interaction” value is given as “with no effect”.

Take S721E: the “effect of a mutation on the interaction” value was “with no effect”.

Consider S721A, for which the “effect of a mutation on the interaction” value is recorded as “with no effect”.

Take V716E: the “effect of a mutation on the interaction” value is on record as “with no effect”.

With V716K, the “effect of a mutation on the interaction” value is recorded as “with no effect”.

As to V716A, the “effect of a mutation on the interaction” value is listed as “with no effect”.

A719K: the “effect of a mutation on the interaction” value was “with no effect”.

In the case of A719E, the “effect of a mutation on the interaction” value is given as “with no effect”.

On to T718K, for which the “effect of a mutation on the interaction” value is given as “with no effect”.

With T718E, the “effect of a mutation on the interaction” value is on record as “with no effect”.

For the variant T718A, the “effect of a mutation on the interaction” value is recorded as “with no effect”.

A further test covers variants of B2. The following applies: with BBS7, Q8IWZ6-2. This is another data set of the same source.
Take S365R: the “effect of a mutation on the interaction” value was “disrupting interaction strength”.
